Measured values as given in the MegaScale stability set (Tsuboyama et al. 2023).

B1: EHEE_rd2_0191 (parent)
chain: TTEYTFTDDEEARRAIEELKKRGLTFRYEKHGTTWRVRVD
B2: HEEH_KT_rd6_0007 (parent)
chain: SIEEEIKKAEEAKEKGKTFIHGDFVATTEELLDELLKRLRKKL

Variants of: B1
Experiment: folding stability dG (cDNA display proteolysis); higher = more stable
Conditions: PBS, room temperature

Folding stability dG [kJ/mol]: each site, then its substitutions
T1: W 13.4 | Q 8.52 | P 9 | F 11.3 | H 8.79 | A 8.62 | E 8.09 | V 10.2 | M 9.25 | L 8.37 | K 7.47 | I 10.2 | R 7.82 | S 8.58 | D 7.3 | G 8.17 | Y 12.3 | N 6.79
Y4: K 0.51 | S 0.151 | R 1.6 | W 9.29 | M 7.48 | C 11.7 | E -0.151 | T 1.32 | F 8.32 | N -2.39 | Q 2.51 | I 6.01 | V 3.37 | L 8.05 | H 3.3 | A 0.247
T7: A 6.82 | D 8.26 | C 9.79 | E 8.67 | F 9.3
T2: G 5.94 | M 9.2 | E 7.35 | N 6.61 | P 3.9 | D 5.64 | K 8.4 | V 10.1 | A 7.61 | L 9.64 | R 9.51 | H 8.72 | Y 10.1 | I 10.5 | C 12.1 | F 9.76 | Q 8.36 | W 11 | S 7.01
E3: K 3.22 | D 6.62 | A 4.67 | G 3.03 | H 7.25 | R 4.7 | C 11.7 | I 10.6 | P 1.11 | W 12.7 | M 8.94 | F 10.2 | Y 11 | L 9.43 | V 10.7 | S 6.49 | T 9.66 | N 5.81 | Q 6.17
F6: I 2.57 | L 0.703 | Y 8.19 | M -0.464 | G -2.18 | W 3.1 | T -1.81
T5: Y 10 | W 11.2 | K 5.46 | I 11.3 | S 6.23 | V 10.6 | N 5.7 | Q 6.85 | F 10.5 | D 3.43 | R 6.84 | M 8.17 | A 5.15 | H 6.97 | C 9.75 | G 0.36 | E 7.49 | L 9.42

Variants of: B2
Experiment: as above
Conditions: PBS, room temperature

Folding stability dG [kJ/mol], by site and new letter:
D33: F 5.51 | E 5.62 | P -1.36 | I 5.66 | R 5.74 | H 4.34 | N 5.33 | S 4.36 | M 4.91 | L 5.15 | T 4.59 | Q 4.15 | V 4.88 | A 5.12 | C 8.28 | G 3.57 | K 5.15 | W 6.03 | Y 5.34
K37: M 5.84 | W 3.48 | Q 5.72 | G 3.61 | A 6.26 | E 5.23 | Y 3.92 | P -1.95 | L 6.33 | V 4.39 | F 3.87 | I 4.8 | H 4.47 | S 5.07 | N 4.91 | C 8.6 | R 7.01 | T 5.27 | D 4.08
L36: P -0.452 | M 2.85 | G 0.134 | V 3.51 | N 0.192 | E -0.251 | Y 2.73 | W 3.58 | H 1.04 | T 0.749 | D -1.87 | A 1.65 | Q 1.27 | I 6.79 | S 0.774 | F 3.17 | R 2.22 | K -0.0293
K42: N 2.93 | H 4.6 | I 6.64 | W 7.65 | A 5.95 | R 5.6 | L 7.64 | F 5.76 | Q 5.95 | E 5.16 | P 2.02 | T 4.97 | V 5.16 | D 3.91 | G 2.6 | Y 6.26 | S 4.74 | M 7.27
R38: L 8.13 | D 2.06 | H 6.69 | W 8.36 | F 7.67 | Y 8.41 | S 3.52 | K 4.29 | E 3.88 | N 3.64 | M 7.97 | Q 5.16 | P -1 | G 2.18 | A 5.74 | V 5.73 | I 7.23 | T 4.8
E34: P 1.6 | D 3.64 | M 5.44 | N 3.69 | V 3.98 | S 3.51 | T 4.29 | G 3.08 | I 5.69 | R 5.03 | K 4.63 | F 5.87 | W 7.77 | L 5.85 | C 6.84 | Y 5.84 | H 4.28 | A 4.98 | Q 4.91
L39: G -1.79 | T -0.209 | M 4.09 | W 3.77 | F 3.37 | E -1.88 | A 0.703 | K 0.427 | I 3.54 | V 0.331 | H 0.247 | P -1.05 | S 0.389 | R 2.16 | Y 2.92 | Q -0.247 | N 0.364
L43: Q 3.5 | C 5.47 | N 2.37 | M 3.59 | S 2.19 | P 1.8 | R 4.75 | E 0.937 | I 3.21 | K 3.44 | D 0.866 | Y 4.15 | G 1.86 | T 2.23 | A 2.47 | W 4.42 | V 2.35 | F 4.38 | H 3.3
L35: R 2.27 | Y 3.42 | T 1.59 | G 0.498 | Q 2.03 | E 1.31 | P -0.59 | N 1.2 | A 2.07 | W 3.69 | H 1.92 | D 0.502 | M 2.99 | K 1.29 | S 0.18 | V 2.94 | I 4.81 | F 3.34
L31: W 3.97 | S 3.52 | Y 3.02 | T 3.69 | Q 7.34 | K 3.16 | R 2.24 | N 2.99 | V 2.97 | M 6.9 | P 1.89
K41: S 4.68 | I 5.02 | H 4.82 | F 3.97 | Q 5.9 | D 4.59 | N 4.64 | P 0.238 | L 5.94 | A 6.56 | V 4.48 | R 6.44 | M 5.76 | T 4.36 | Y 3.97 | E 4.99 | W 4.5 | G 3.87
R40: A 2.22 | S 1.59 | M 3.67 | T 1.95 | D -0.833 | C 5.49 | I 3.25 | K 3.23 | G 0.649 | H 2.77 | L 4.26 | P -1.41 | E -0.761 | F 4.62 | Y 7.06 | W 5.16 | Q 2.07 | V 2.92 | N 1.5
L32: Q 0.544 | A 1.73 | C 2.67 | I 6.11 | G 1.56 | T 1.85 | V 2.77 | H 1.64 | P 0.703 | F 6.64 | E 1.03 | N 1.23 | K 1.44 | D 1.56 | M 3.15 | W 3.74 | R 1.18 | Y 5.1 | S 1.19
